Assay results from patent publication US20120231006A1 (Amgen, published 2012).
Residue numbers refer to the chain shown, from its start.

Legend:
[1] = target: T1, hOrai1-mOrai1 ECL2 chimeric protein (human/mouse chimera, UniProt Q96D31 1-301); experiment: FACS, 293EBNA transfectants
T1 construct: human Orai1 with mouse ECL2; also called Ch
Description: FIG. 15A-B illustrates the results of FACS analysis showing binding to human Orai1 extracellular loop 2-mouse Orai1 mutant expressed on the surface of HEK-293-EBNA cells. HEK-293-EBNA cells were transiently transfected with mouse Orai1 mutant where human Orai1 extracellular loop 2 replaced the mouse Orai1 extracellular loop 2 and human Orai1 mutant where mouse Orai1 extracellular loop 2 replaced human extracellular loop 2. Transfected cells were stained first with recombinant monoclonal antibodies then counter-stained with a secondary phycoerythrin-labeled goat (“Gt”) anti-human (“Hu”) IgG F(ab′)₂ antibody fragment and visualized using FACS.
FACS binding analysis. Transfected 293EBNA cells transiently expressed hOrai1-mOrai1 ECL2 or mOrai1-hOrai1 ECL2 chimera. The transfected cells were harvested at 48 hours post-transfection. Cells transfected with pcDNA3.1 were used as negative controls. Cells were washed once with ice-cold 1×PBS, resuspended in ice-cold FACS buffer (1×D-PBS+2% goat serum), and 2×10⁵ cells in 100 μL were stained per antibody combination. All antibody incubation steps were performed on ice for 1 hour. […] Next, the unlabelled antibody was detected using goat F(ab′)₂ anti-mouse or anti-human IgG-phycoerythrin (IgG-PE), followed by a wash with 200 μL of ice-cold FACS buffer before flow cytometry analysis. Unstained cells and cells stained with detecting antibodies were used as negative controls. The values of relative level of fluorescence were calculated using FCS Express (De Novo Software) and mean values were calculated using log-transformed data (geometric mean). The results of the FACS analysis are shown in FIG. 15A-B, which supports the conclusion that the hOrai1 ECL2 domain is the region of hOrai1 where antibodies of the present invention bind.

[2] = target: T2, hOrai1-mOrai1 ECL2 (SKPPA) protein (human/mouse chimera, UniProt Q96D31 1-301); experiment: FACS, 293EBNA, RFI-POC grade; set-up: concentration or dose not given beside the values
T2 construct: also called Ch
T2 sequence (Q96D31 other isoform, or with tags, fused parts or gaps): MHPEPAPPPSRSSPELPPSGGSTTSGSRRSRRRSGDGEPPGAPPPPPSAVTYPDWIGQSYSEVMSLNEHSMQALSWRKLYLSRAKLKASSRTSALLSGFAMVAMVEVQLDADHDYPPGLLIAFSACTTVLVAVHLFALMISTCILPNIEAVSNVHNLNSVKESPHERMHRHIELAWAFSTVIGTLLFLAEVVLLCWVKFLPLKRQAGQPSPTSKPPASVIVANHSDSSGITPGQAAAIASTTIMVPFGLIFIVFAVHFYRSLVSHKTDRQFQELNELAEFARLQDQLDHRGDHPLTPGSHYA

[3] = target: T3, hOrai1-mOrai1 ECL2 (…) protein (human/mouse chimera, UniProt Q96D31 1-301); experiment: FACS, 293EBNA, RFI-POC grade; set-up: concentration or dose not given beside the values
T3 construct: also called Ch
T3 sequence (Q96D31 other isoform, or with tags, fused parts or gaps): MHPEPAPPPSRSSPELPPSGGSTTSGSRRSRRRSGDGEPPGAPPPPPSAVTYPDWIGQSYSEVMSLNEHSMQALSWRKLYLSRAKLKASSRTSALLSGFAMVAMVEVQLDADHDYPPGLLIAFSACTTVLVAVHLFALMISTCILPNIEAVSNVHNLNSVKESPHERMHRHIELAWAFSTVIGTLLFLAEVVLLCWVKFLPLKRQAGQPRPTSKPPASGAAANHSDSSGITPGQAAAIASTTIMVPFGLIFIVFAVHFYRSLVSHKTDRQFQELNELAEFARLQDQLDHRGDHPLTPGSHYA

[4] = target: T4, hOrai1-mOrai1 ECL2 (…) protein (human/mouse chimera, UniProt Q96D31 1-301); experiment: FACS, 293EBNA, RFI-POC grade; set-up: concentration or dose not given beside the values; remark: listed apart in the source
T4 construct: also called Ch
T4 sequence (Q96D31 other isoform, or with tags, fused parts or gaps): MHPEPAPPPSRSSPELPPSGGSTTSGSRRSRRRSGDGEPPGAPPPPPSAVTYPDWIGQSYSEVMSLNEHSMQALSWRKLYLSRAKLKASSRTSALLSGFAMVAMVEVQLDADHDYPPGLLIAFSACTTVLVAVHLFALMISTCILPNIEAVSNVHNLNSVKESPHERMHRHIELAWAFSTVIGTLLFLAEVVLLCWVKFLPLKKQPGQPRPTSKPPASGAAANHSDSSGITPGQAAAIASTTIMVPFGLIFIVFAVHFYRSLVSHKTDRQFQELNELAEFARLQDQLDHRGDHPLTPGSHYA

[5] = target: T5, mOrai1-hOrai1 ECL2 chimeric protein (human/mouse chimera, UniProt Q8BWG9 1-304 (mouse entry)); experiment: FACS, 293EBNA, RFI-POC grade; set-up: concentration or dose not given beside the values
T5 construct: mouse Orai1 with human ECL2; also called Ch
T5 sequence (Q8BWG9 other isoform, or with tags, fused parts or gaps mutant): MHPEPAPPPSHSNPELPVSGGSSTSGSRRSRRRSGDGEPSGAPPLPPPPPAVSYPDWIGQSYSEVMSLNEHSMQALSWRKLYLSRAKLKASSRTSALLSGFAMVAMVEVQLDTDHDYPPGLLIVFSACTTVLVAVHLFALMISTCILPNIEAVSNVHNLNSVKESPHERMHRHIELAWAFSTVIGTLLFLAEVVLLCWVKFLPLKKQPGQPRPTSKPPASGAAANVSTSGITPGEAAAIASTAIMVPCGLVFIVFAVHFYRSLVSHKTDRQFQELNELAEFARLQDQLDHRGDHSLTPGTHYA

[6] = target: T6, hOrai1-mOrai1 ECL2 (…) protein (human/mouse chimera, UniProt Q96D31 1-301); experiment: FACS, 293EBNA, RFI-POC grade; set-up: concentration or dose not given beside the values; remark: listed apart in the source
T6 construct: also called Ch
T6 sequence (Q96D31 other isoform, or with tags, fused parts or gaps): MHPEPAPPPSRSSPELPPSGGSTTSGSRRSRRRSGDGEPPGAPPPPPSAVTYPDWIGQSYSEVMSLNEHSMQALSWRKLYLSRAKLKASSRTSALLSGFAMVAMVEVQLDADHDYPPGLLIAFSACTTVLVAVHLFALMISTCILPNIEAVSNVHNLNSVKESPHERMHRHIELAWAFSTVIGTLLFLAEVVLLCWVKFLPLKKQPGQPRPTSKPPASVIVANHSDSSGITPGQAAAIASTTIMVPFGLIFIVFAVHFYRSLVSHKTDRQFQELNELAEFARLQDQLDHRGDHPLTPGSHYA

[7] = target: T7, hOrai1-mOrai1 ECL2 (RPTSKPPA) protein (human/mouse chimera, UniProt Q96D31 1-301); experiment: FACS, 293EBNA, RFI-POC grade; set-up: concentration or dose not given beside the values
T7 construct: also called Ch
T7 sequence (Q96D31 other isoform, or with tags, fused parts or gaps): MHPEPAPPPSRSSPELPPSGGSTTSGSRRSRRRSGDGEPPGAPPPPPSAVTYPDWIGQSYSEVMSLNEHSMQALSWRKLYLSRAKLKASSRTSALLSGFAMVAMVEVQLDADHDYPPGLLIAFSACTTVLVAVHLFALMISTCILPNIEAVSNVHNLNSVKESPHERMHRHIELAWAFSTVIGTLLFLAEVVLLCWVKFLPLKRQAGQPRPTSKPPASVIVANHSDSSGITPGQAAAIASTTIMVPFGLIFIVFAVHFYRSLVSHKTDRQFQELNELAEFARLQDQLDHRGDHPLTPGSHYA

[8] = target: T8, mOrai1-hOrai1 ECL2 (…) protein (human/mouse chimera, UniProt Q8BWG9 1-304 (mouse entry)); experiment: FACS, 293EBNA; set-up: concentration or dose not given beside the values
T8 construct: also called Ch
Description: (§1) FIG. 16A-D illustrates the results of FACS analysis showing binding to the indicated mOrai1-hOrai1 ECL2 chimeric mutants expressed on the surface of HEK-293-EBNA cells. Transfected cells were stained first with recombinant monoclonal antibodies then counter-stained with a secondary phycoerythrin-labeled goat (“Gt”) anti-human (“Hu”) IgG F(ab′)₂ antibody fragment and visualized using FACS. In FIG. 16B and FIG. 16D, The values of Relative Fluorescence Intensity as Percent of Control (RFI-POC) are calculated from the relative fluorescence intensity geometric mean (Geo Mean). The geometric mean is an average calculated by multiplying a series of numbers and taking the nth root where n is the number of numbers in the series. It is a statistical average of a set of transformed numbers often used to represent a central tendency in a highly variable data set that minimizes the effects of extreme values.
(§2) Table 11A and Table 11B feature a schematic representation of the POC data from FIG. 16B and FIG. 16D, respectively, where the binding results are recorded as (+++) denoting binding POC from 40% to 100%, (++) for POC of 5% to less than 40%, (+) for POC from 1% to less than 5% and (−) as lack of binding with POC less than 1%.
T8 sequence (Q8BWG9 other isoform, or with tags, fused parts or gaps): as the sequence (Q8BWG9 other isoform, or with tags, fused parts or gaps mutant) above, with P218A, A219E, G221V, A222I, A223V, V226H, T228D counted along it

[9] = target: T9, mOrai1-hOrai1 ECL2 (SPTKPPAE) protein (human/mouse chimera, UniProt Q8BWG9 1-304 (mouse entry)); experiment: FACS, 293EBNA; set-up: concentration or dose not given beside the values
T9 construct: also called Ch
T9 sequence (Q8BWG9 other isoform, or with tags, fused parts or gaps): as the sequence (Q8BWG9 other isoform, or with tags, fused parts or gaps mutant) above, with R212S, S215K, K216P, P218A, A219E counted along it
Description: as §1, §2

[10] = target: T1, hOrai1-mOrai1 ECL2 chimeric protein; experiment: FACS, 293EBNA; set-up: concentration or dose not given beside the values
Description: as §1, §2

[11] = target: T10, mOrai1-hOrai1 ECL2 (AESVIV) protein (human/mouse chimera, UniProt Q8BWG9 1-304 (mouse entry)); experiment: FACS, 293EBNA; set-up: concentration or dose not given beside the values
T10 construct: also called Ch
T10 sequence (Q8BWG9 other isoform, or with tags, fused parts or gaps): as the sequence (Q8BWG9 other isoform, or with tags, fused parts or gaps mutant) above, with P218A, A219E, G221V, A222I, A223V counted along it
Description: as §1, §2

[12] = target: T11, mOrai1-hOrai1 ECL2 (…) protein (human/mouse chimera, UniProt Q8BWG9 1-304 (mouse entry)); experiment: FACS, 293EBNA; set-up: concentration or dose not given beside the values; remark: listed apart in the source
T11 construct: also called Ch
Description: as §1, §2
T11 sequence (Q8BWG9 other isoform, or with tags, fused parts or gaps): as the sequence (Q8BWG9 other isoform, or with tags, fused parts or gaps mutant) above, with K206R, P208A, R212S, S215K, K216P, P218A, A219E counted along it

[13] = target: T12, mOrai1-hOrai1 ECL2 (…) protein (human/mouse chimera, UniProt Q8BWG9 1-304 (mouse entry)); experiment: FACS, 293EBNA; set-up: concentration or dose not given beside the values; remark: listed apart in the source
T12 construct: also called Ch
Description: as §1, §2
T12 sequence (Q8BWG9 other isoform, or with tags, fused parts or gaps): as the sequence (Q8BWG9 other isoform, or with tags, fused parts or gaps mutant) above, with R212S, S215K, K216P, P218A, A219E, G221V, A222I, A223V counted along it

[14] = target: T13, mOrai1-hOrai1 ECL2 (…) protein (human/mouse chimera, UniProt Q8BWG9 1-304 (mouse entry)); experiment: FACS, 293EBNA; set-up: concentration or dose not given beside the values; remark: listed apart in the source
T13 construct: also called Ch
Description: as §1, §2
T13 sequence (Q8BWG9 other isoform, or with tags, fused parts or gaps): as the sequence (Q8BWG9 other isoform, or with tags, fused parts or gaps mutant) above, with R212S, S215K, K216P, P218A, A219E, G221V, A222I, A223V, V226H, T228D counted along it

[15] = target: T14, mOrai1-hOrai1 ECL2 (KPPAE) protein (human/mouse chimera, UniProt Q8BWG9 1-304 (mouse entry)); experiment: FACS, 293EBNA; set-up: concentration or dose not given beside the values
T14 construct: also called Ch
T14 sequence (Q8BWG9 other isoform, or with tags, fused parts or gaps): as the sequence (Q8BWG9 other isoform, or with tags, fused parts or gaps mutant) above, with S215K, K216P, P218A, A219E counted along it
Description: as §1, §2

T1 sequence (Q96D31 other isoform, or with tags, fused parts or gaps mutant): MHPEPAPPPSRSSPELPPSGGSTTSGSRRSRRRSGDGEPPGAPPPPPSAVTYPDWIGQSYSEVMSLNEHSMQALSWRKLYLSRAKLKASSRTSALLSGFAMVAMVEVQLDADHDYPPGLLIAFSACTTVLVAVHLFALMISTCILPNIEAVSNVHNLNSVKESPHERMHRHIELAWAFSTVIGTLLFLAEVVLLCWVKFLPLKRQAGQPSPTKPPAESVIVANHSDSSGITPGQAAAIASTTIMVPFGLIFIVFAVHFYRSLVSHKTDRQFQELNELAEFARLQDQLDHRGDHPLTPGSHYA

B1: mAb 5A1.1 (antibody, human IgG2)
heavy: QVQLVQSGAEVKKPGASVKVPCKASGYTFTDYYINWVRQAPGQGLEWMGWINPNNGGTNYAQKFQGRVTMTRDTSISTAYMELRRLRSDDTAVYYCARERGGYEDWFDPWGQGTLVTVSSASTKGPSVFPLAPCSRSTSESTAALGCLVKDYFPEPVTVSWNSGALTSGVHTFPAVLQSSGLYSLSSVVTVPSSNFGTQTYTCNVDHKPSNTKVDKTVERKCCVECPPCPAPPVAGPSVFLFPPKPKDTLMISRTPEVTCVVVDVSHEDPEVQFNWYVDGVEVHNAKTKPREEQFNSTFRVVSVLTVVHQDWLNGKEYKCKVSNKGLPAPIEKTISKTKGQPREPQVYTLPPSREEMTKNQVSLTCLVKGFYPSDIAVEWESNGQPENNYKTTPPMLDSDGSFFLYSKLTVDKSRWQQGNVFSCSVMHEALHNHYTQKSLSLSPGK
VL: QSVLTQPPSVSGAPGQRVTISCTGSSSNIGAGFDVHWYQQLPVTAPKLLIYGNRNRPSGVPARFSGSKSGTSASLAITGLQAEDEAVYYCQSYDSSLTVFGGGTKLTVL
notes: fully human, Campaign 2; lambda CL-1
no binding (tested: 1 µg): binding result [1]
< 1%: POC (percent of control, FACS Geo Mean relative to binding to Ch. 1) [8] | POC (percent of control, FACS Geo Mean relative to binding to Ch. 1) [9] | POC (percent of control, FACS Geo Mean relative to binding to Ch. 1) [10] | POC (percent of control, FACS Geo Mean relative to binding to Ch. 1) [11] | POC (percent of control, FACS Geo Mean relative to binding to Ch. 1) [12] | POC (percent of control, FACS Geo Mean relative to binding to Ch. 1) [13] | POC (percent of control, FACS Geo Mean relative to binding to Ch. 1) [14] | POC (percent of control, FACS Geo Mean relative to binding to Ch. 1) [15]
40 to 100%: percent of control (POC) of FACS Geo Mean [2] | percent of control (POC) of FACS Geo Mean [3] | percent of control (POC) of FACS Geo Mean [4] | percent of control (POC) of FACS Geo Mean [5] | percent of control (POC) of FACS Geo Mean [6] | percent of control (POC) of FACS Geo Mean [7]

B2: mAb 5C1.1 (antibody, human IgG2, lambda, V domains shown)
VH: QVQLVQSGAEVKKPGASVKVSCKASGYTFTDYYMNWVRQAPGQGLEWMGWINPNSGGTKYAQKFQGRVTMTRDTSIRTAYMELSRLRSDDTAVYYCAREYGGNSDWFDPWGQGTLVTVSS
VL: QSVLTQPPSVSGAPGQRVTISCTGSSSNIGAGYDVHWYQQLPGTAPKLLIYGNSNRPSGVPDRFSGSKSGTSASLAITGLQAEDEADYYCQSYDNRLSDSVVIGGGTKLAVQG
notes: fully human IgG2 lambda, Campaign 2
< 1%: POC (percent of control, FACS Geo Mean relative to binding to Ch. 1) [8] | POC (percent of control, FACS Geo Mean relative to binding to Ch. 1) [9] | POC (percent of control, FACS Geo Mean relative to binding to Ch. 1) [10] | POC (percent of control, FACS Geo Mean relative to binding to Ch. 1) [11] | POC (percent of control, FACS Geo Mean relative to binding to Ch. 1) [12] | POC (percent of control, FACS Geo Mean relative to binding to Ch. 1) [13] | POC (percent of control, FACS Geo Mean relative to binding to Ch. 1) [14] | POC (percent of control, FACS Geo Mean relative to binding to Ch. 1) [15]
40 to 100%: percent of control (POC) of FACS Geo Mean [2] | percent of control (POC) of FACS Geo Mean [3] | percent of control (POC) of FACS Geo Mean [4] | percent of control (POC) of FACS Geo Mean [5] | percent of control (POC) of FACS Geo Mean [6] | percent of control (POC) of FACS Geo Mean [7]
no binding (tested: 1 µg): binding result [1]

B3: mAb 5B5.2 (antibody, human IgG2, lambda, V domains shown)
VH: B2 VH with M34I, K59D, S84N, R87T, N103Y, S104E
VL: QSVLTQPPSVSGAPGQRVTISCTGSNSNIGAGFDVHWYQQLPGTVPKLLIYGNNNRPSGVPDRFSGSKSGTSASLAITGLQAEDEADYYCQSYDSRLTVFGGGTKLTVLG
notes: fully human IgG2 lambda, Campaign 2; same chains as 5B5.1
no binding (tested: 1 µg): binding result [1]
40 to 100%: percent of control (POC) of FACS Geo Mean [3] | percent of control (POC) of FACS Geo Mean [4] | percent of control (POC) of FACS Geo Mean [5] | percent of control (POC) of FACS Geo Mean [6] | percent of control (POC) of FACS Geo Mean [7]
5 to 40%: percent of control (POC) of FACS Geo Mean [2]
< 1%: POC (percent of control, FACS Geo Mean relative to binding to Ch. 1) [8] | POC (percent of control, FACS Geo Mean relative to binding to Ch. 1) [9] | POC (percent of control, FACS Geo Mean relative to binding to Ch. 1) [10] | POC (percent of control, FACS Geo Mean relative to binding to Ch. 1) [11] | POC (percent of control, FACS Geo Mean relative to binding to Ch. 1) [12] | POC (percent of control, FACS Geo Mean relative to binding to Ch. 1) [13] | POC (percent of control, FACS Geo Mean relative to binding to Ch. 1) [14] | POC (percent of control, FACS Geo Mean relative to binding to Ch. 1) [15]
